Molecular target: T1, Fur-His6 (CjFur-His6) (Campylobacter jejuni 81-176) (UniProt P0C631)
T1 sequence: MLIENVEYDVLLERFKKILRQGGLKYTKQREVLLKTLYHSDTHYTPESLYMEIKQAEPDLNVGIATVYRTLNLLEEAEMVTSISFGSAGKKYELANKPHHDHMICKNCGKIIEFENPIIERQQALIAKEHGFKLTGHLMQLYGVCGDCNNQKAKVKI
Assay: EMSA
Settings: 10 mM Tris-HCl pH 7.5, 1 mM MgCl2, 0.5 mM DTT, 50 mM KCl, 100 uM MnCl2 (omitted where stated), 1 ug poly(dI-dC), 50 ug BSA, 5% glycerol, 20 ul, ~28 fmol DNA …

GCTAATGCAAAACTTGAATAAAATACAAGAGCTAAAACAAATTTGCAAAAAAATTTACGCATATTATATCCTTGGTTAAATAAAATTTTCAAAGATAATTTTATTTAAAAAAATAAATAAGCCCAAATTTATTTTTGGGCTTATTGTTATTTTTTAGGATTGAATGCTTGATCAACACTAAAAGGCATTGCTTGATAACCCGTGCCTGAACCGCTAAATTGAATTTGAACCGAAGGCTCCTTAGCACCCCAGTTAAATTCATCAATTTCAGGTTTTGGCTCTCCAAGACTTACACCT (double strand) [dsbA1 promoter region]
binding: no binding
